Reference: PMC13503762 (Nature Communications, 2026)

Molecular target: SARS-CoV-2 M protein (purified, in LMNG/CHS detergent) (SARS-CoV-2, UniProt P0DTC5)
Assay: cryo-EM structure
Conditions: both partners purified

B1: short conformation Fab (scFab) (Fab, V domains shown)
VH: EVQLQQSGPELVKPGASMKISCKTSGYSFTGYTMNWVKQSHGKNLEWIGLINPYNGDTSYNQKFKGKATLTVDKSSSTAYMELLSLTSEDSAVYYCEVINTYWGQGTLVTVSA
VL: DIVMTQSPASLAVSLGQRATISCKASQSIDYDGDNYMNWYQQKPGQPPKLLIYTTSNLESGIPARFSGSGSGTDFTLNIHPVEEGDAATYYCQQNNEDPYTFGGGTKLEIK
notes: also called short conformation-selective Fab; Fab targeting M_(short)
  binding result: binds
